Laboratory results as given in PMC3847620, “A valid strategy for precise identifications of transcription factor binding sites in combinatorial regulation using bioinformatic and experimental approaches”.

Columns and labels:
MBP-IpMYB1 [1] = target: T1, MBP-IpMYB1 (Ipomoea purpurea, UniProt Q1JV13 1-272); assay: EMSA; EMSA: 1x = 10 mM Tris-HCl pH 7.5, 50 mM NaCl, 8 mM MgCl2, 1 mM EDTA, 1 mM DTT, 5% glycerol; 20 pmol probe, 2 ug MBP-protein in 10 ul, 25 C, 10 min; 12% native PAGE, 0.25x TBE; details: protein: recombinant; tags: MBP (pMAL-c2G)
T1 sequence: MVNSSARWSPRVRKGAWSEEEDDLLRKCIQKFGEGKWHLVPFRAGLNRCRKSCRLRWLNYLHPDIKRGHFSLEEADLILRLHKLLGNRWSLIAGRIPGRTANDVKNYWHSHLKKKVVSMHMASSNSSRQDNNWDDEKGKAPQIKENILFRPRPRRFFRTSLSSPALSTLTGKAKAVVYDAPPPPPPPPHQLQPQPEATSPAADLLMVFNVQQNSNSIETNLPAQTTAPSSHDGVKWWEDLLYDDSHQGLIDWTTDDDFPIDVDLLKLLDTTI

MBP-IpMYB1 [2] = target: T1, MBP-IpMYB1; assay: EMSA; favored over probe 1; EMSA: 1x = 10 mM Tris-HCl pH 7.5, 50 mM NaCl, 8 mM MgCl2, 1 mM EDTA, 1 mM DTT, 5% glycerol; 20 pmol probe, 2 ug MBP-protein in 10 ul, 25 C, 10 min; 12% native PAGE, 0.25x TBE; details: protein: recombinant; tags: MBP (pMAL-c2G)

B1: p1x3 (dsDNA)
DNA 1: ATTCCTAGCTACCATACCTAGCTACCATACCTAGCTACCATATTA
DNA 2: TAATATGGTAGCTAGGTATGGTAGCTAGGTATGGTAGCTAGGAAT
- binding result (MBP-IpMYB1 [1]): binds

B2: MYB1pro probe 3 (dsDNA)
DNA 1: TCTAGCTAGCTAGCTACCAACTGCAC
DNA 2: GTGCAGTTGGTAGCTAGCTAGCTAGA
- binding result (MBP-IpMYB1 [2]): binds
